Data on 5 molecules can be found in article PMC2853223 (ACS chemical biology, 2009).

The labels stand for the following.
B3: PikAIV KSdd residues 1-37 (the PikAIV part of P3P4dock) (domain or fragment, UniProt Q9ZGI2 1-37, looked up)
chain: MTSSNEQLVDALRASLKENEELRKESRRRADRRQEPM

The target of data set [1] is PikAIV full module (post-translational modification of its ACP domain (grown in BAP1 E. coli cells)). The data set can be described thus: fluorescence polarisation. On the technique in general: In fluorescence polarisation assays a small probe gives low polarisation when free and higher when bound to something large.
Data set [2] deals with T1, PikAIII ACPdd (N-terminally His-tagged discrete C-terminal docking domain of PikAIII) (UniProt Q9ZGI3 1479-1562).
T1 sequence (looked up): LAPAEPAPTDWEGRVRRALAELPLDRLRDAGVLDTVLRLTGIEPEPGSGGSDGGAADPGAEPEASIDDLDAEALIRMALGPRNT
Put plainly: SPR. For orientation: In SPR one partner is held on a chip, and binding of the other changes the refractive index at the surface.

Data set [3] deals with the molecule itself. Put plainly: crystal structure.
The target of data set [4] is B3. Put plainly: crystal structure.

B1: PikAIII ACPdd-FL (PikAIII ACPdd with an added C-terminal cysteine labelled with BODIPY-FL) (domain or fragment)
chain: LAPAEPAPTDWEGRVRRALAELPLDRLRDAGVLDTVLRLTGIEPEPGSGGSDGGAADPGAEPEASIDDLDAEALIRMALGPRNTC
modifications: BODIPY-FL (iodoacetamide) on the added C-terminal cysteine
What is called Kd is a measure of binding affinity in units of concentration. Higher therefore signals lower affinity. B1 had an equilibrium dissociation constant (Kd) in data set [1] of 5 ± 1 µM.

B2: PikAIV KSdd (discrete N-terminal docking domain of PikAIV, tagless) (domain or fragment, UniProt Q9ZGI2 1-37, looked up)
chain: MTSSNEQLVDALRASLKENEELRKESRRRADRRQEPM
The koff is the first-order rate constant of dissociation. Read a high koff as fast dissociation. As a reminder, the kon is a measure of how fast the partners come together. A low value points to slow association. Turning to B2, in data set [2], the Kd came to 73 ± 43 µM, the dissociation rate constant (koff) amounted to 0.21 ± 0.03 s⁻¹ and the kon turned out to be 3000 ± 1800 M⁻¹ s⁻¹.
For the molecule B3, the binding result in data set [3] is “binds”.

B4: P3P4dock (amino acids 1534-1562 of PikAIII ACPdd fused to amino acids 1-37 of the KSdd of PikAIV) (other)
chain: SNADPGAEPEASIDDLDAEALIRMALGPRNTMTSSNEQLVDALRASLKENEELRKESRRRADRRQEPM
Consider B4, for which the binding result in data set [3] was “binds”.

B5: PikAIII ACPdd residues 1534-1562 (the PikAIII part of P3P4dock) (domain or fragment, UniProt Q9ZGI3 1534-1562, looked up)
chain: ADPGAEPEASIDDLDAEALIRMALGPRNT
Regarding B5, the binding result in data set [4] was “binds”.
